Results published in doi:10.1101/2022.10.28.514188 (bioRxiv, 2022).
Positions count from the first letter of the chain named. Names may count otherwise. “And” between values parts separate entries of the source, which are not always exact repeats. Equal values may be shown once.

Key:
[1] = biological target: CLPB-NBD (NBD-only variant, N-terminal ANK domain truncated) (human) (UniProt Q9H078); assay: cryo-EM 2D classification
[2] = biological target: CLPB^isoform1 (isoform-1 of CLPB) (human); assay: negative-stain EM + cryo-EM 2D classification
CLPB-NBD^E425Q (human) = CLPB-NBD^E425Q (human) (UniProt Q9H078); assay: cryo-EM structure
cryo-EM structure [3] = biological target: the molecule itself; assay: cryo-EM structure
[4] = biological target: the molecule itself; assay: cryo-EM 2D classification
[5] = biological target: the molecule itself; assay: SEC + other: negative-stain EM
cryo-EM structure [6] = biological target: the molecule itself; assay: cryo-EM structure; remark: listed apart in the source
SEC = biological target: the molecule itself; assay: SEC

With “CLPB-NBD (NBD-only variant, N-terminal ANK domain truncated) (from UniProt Q9H078-2 1-677) (domain or fragment)” the stoichiometry N [1] was 6 and 7.

“CLPB^isoform1 (isoform-1 of CLPB) (enzyme)” showed a stoichiometry N [2] of 14.

In the case of “CLPB-NBD^E425Q (from UniProt Q9H078-2 1-677) (domain or fragment)”, the stoichiometry N (CLPB-NBD^E425Q (human)) is reported as 6 and 7 and 9.

B1: CLPB-N127 (human CLPB isoform 2 starting from the PARL cleavage site), wild type (enzyme)
chain: YSKSPSNKDAALLEAARANNMQEVSRLLSEGADVNAKHRLGWTALMVAAINRNNSVVQVLLAAGADPNLGDDFSSVYKTAKEQGIHSLEVLITREDDFNNRLNNRASFKGCTALHYAVLADDYRTVKELLDGGANPLQRNEMGHTPLDYAREGEVMKLLRTSEAKYQEKQRKREAEERRRFPLEQRLKEHIIGQESAIATVGAAIRRKENGWYDEEHPLVFLFLGSSGIGKTELAKQTAKYMHKDAKKGFIRLDMSEFQERHEVAKFIGSPPGYVGHEEGGQLTKKLKQCPNAVVLFDEVDKAHPDVLTIMLQLFDEGRLTDGKGKTIDCKDAIFIMTSNVASDEIAQHALQLRQEALEMSRNRIAENLGDVQISDKITISKNFKENVIRPILKAHFRRDEFLGRINEIVYFLPFCHSELIQLVNKELNFWAKRAKQRHNITLLWDREVADVLVDGYNVHYGARSIKHEVERRVVNQLAAAYEQDLLPGGCTLRITVEDSDKQLLKSPELPSPQAEKRLPKLRLEIIDKDSKTRRLDIRAPLHPEKVCNTI
With B1 the “stoichiometry N” value (cryo-EM structure [3]) was 14 and the “stoichiometry N” value [4] was 12.

B2: CLPB^R178E (enzyme)
chain: B1 chain with R52E
B2: binds [5].

B3: CLPB^E425Q (Walker B mutant of CLPB-N127, isoform 2) (enzyme)
chain: B1 chain with E299Q
For B3, the “stoichiometry N” value (cryo-EM structure [6]) was 12.

B4: CLPB^R227E (enzyme)
chain: B1 chain with R101E
B4: binds [5].

B5: CLPB^Δ201-232 (insertion between AM2 and AM3 deleted) (enzyme)
chain: YSKSPSNKDAALLEAARANNMQEVSRLLSEGADVNAKHRLGWTALMVAAINRNNSVVQVLLAAGADPNLGDDFSSFKGCTALHYAVLADDYRTVKELLDGGANPLQRNEMGHTPLDYAREGEVMKLLRTSEAKYQEKQRKREAEERRRFPLEQRLKEHIIGQESAIATVGAAIRRKENGWYDEEHPLVFLFLGSSGIGKTELAKQTAKYMHKDAKKGFIRLDMSEFQERHEVAKFIGSPPGYVGHEEGGQLTKKLKQCPNAVVLFDEVDKAHPDVLTIMLQLFDEGRLTDGKGKTIDCKDAIFIMTSNVASDEIAQHALQLRQEALEMSRNRIAENLGDVQISDKITISKNFKENVIRPILKAHFRRDEFLGRINEIVYFLPFCHSELIQLVNKELNFWAKRAKQRHNITLLWDREVADVLVDGYNVHYGARSIKHEVERRVVNQLAAAYEQDLLPGGCTLRITVEDSDKQLLKSPELPSPQAEKRLPKLRLEIIDKDSKTRRLDIRAPLHPEKVCNTI
B5: binds (SEC).
